Source: the supplement of paper PMC10724198
± gives the standard deviation of the averaged measurements.

Legend:
Saccharomyces cerevisiae [1] = assay: protein stability index of tFT-peptide fusion (C-terminal peptide) (PSI (0-1 scale)); higher = more stable (slower turnover); settings: genetic background: wild type; temperature: 30 C
Saccharomyces cerevisiae [2] = assay: as above
Description: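 MPS profiling in S. cerevisiae of the tFT-X12 degron library: putative degron peptides plus stable controls, 12 aa, fused to the C-terminus of a sfGFP-mCherry timer. Cells are FACS-sorted into 8 mCherry/sfGFP bins and deep-sequenced. PSI runs from 0 (unstable) to 1 (stable). Backgrounds are wild type, das1Δ and doa10Δ at 30 °C, and wild type, das1Δ, cdc34-1 and cdc53-1 at 37 °C; 2-3 technical replicates each.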

[3] = genetic background: cdc34-1, temperature: 37 C
[4] = genetic background: cdc53-1, temperature: 37 C
[5] = genetic background: das1 deletion, temperature: 30 C
[6] = genetic background: das1 deletion, temperature: 37 C
[7] = genetic background: doa10 deletion, temperature: 30 C
[8] = genetic background: wild type, temperature: 30 C
[9] = genetic background: wild type, temperature: 37 C
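Note: PSI is a weighted mean of sequencing reads over stability bins, variants kept only with over 10 reads, mCherry proximal and sfGFP distal, peptide attached via GGGS linker.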

Row | Sequence | protein stability index (Saccharomyces cerevisiae [1]) | protein stability index (Saccharomyces cerevisiae [2]; [3]) | protein stability index (Saccharomyces cerevisiae [2]; [4]) | protein stability index (Saccharomyces cerevisiae [2]; [5]) | protein stability index (Saccharomyces cerevisiae [2]; [6]) | protein stability index (Saccharomyces cerevisiae [2]; [7]) | protein stability index (Saccharomyces cerevisiae [2]; [8]) | protein stability index (Saccharomyces cerevisiae [2]; [9])
1 | EHIRWLLPKHCL | 0.454 ± 0.041 | 0.681 ± 0.027 | 0.73 ± 0.026 | 0.647 ± 0.03 | 0.725 ± 0.03 | 0.2907 ± 0.0018 | 0.314 ± 0.017 | 0.613 ± 0.063
2 | EIKTEIGKKKKN | 0.503 ± 0.0079 | 0.632 ± 0.2 | 0.671 ± 0.022 | 0.723 ± 0.05 | 0.658 ± 0.045 | 0.541 ± 0.0061 | 0.61 ± 0.028 | 0.608 ± 0.067
3 | EINRKKRKTKIN | 0.436 ± 0.04 | 0.704 ± 0.047 | 0.7155 ± 0.0039 | 0.67 ± 0.047 | 0.771 ± 0.011 | 0.312 ± 0.023 | 0.373 ± 0.018 | 0.465 ± 0.044
4 | ERGSLPRIHHLI | 0.257 ± 0.0082 | 0.6542 ± 0.0035 | 0.754 ± 0.017 | 0.688 ± 0.085 | 0.736 ± 0.011 | 0.127 ± 0.012 | 0.168 ± 0.034 | 0.31 ± 0.02
5 | ERLVFKRWYLCL | 0.123 ± 0.018 | 0.585 ± 0.028 | 0.605 ± 0.062 | 0.571 ± 0.033 | 0.7056 ± 0.0052 | 0.0726 ± 0.026 | 0.0951 ± 0.039 | 0.136 ± 0.0091
6 | ESCVRSRRVLLC | 0.221 ± 0.026 | 0.564 ± 0.063 | 0.71 ± 0.032 | 0.621 ± 0.013 | 0.73 ± 0.027 | 0.129 ± 0.044 | 0.127 ± 0.017 | 0.196 ± 0.0075
7 | EVPVIGVLRSLL | 0.743 ± 0.043 | 0.9376 ± 0.009 | 0.918 ± 0.014 | 0.804 ± 0.018 | 0.8784 ± 0.0044 | 0.773 ± 0.027 | 0.78 ± 0.023 | 0.847 ± 0.017
8 | EVSIISECKVAS | 0.258 ± 0.011 | 0.5081 ± 0.0025 | 0.639 ± 0.059 | 0.44 ± 0.019 | 0.585 ± 0.026 | 0.145 ± 0.013 | 0.175 ± 0.014 | 0.281 ± 0.015
9 | FALAYFFVLKSF | 0.172 ± 0.0026 | 0.228 ± 0.019 | 0.246 ± 0.057 | 0.243 ± 0.045 | 0.423 ± 0.0084 | 0.0908 ± 0.011 | 0.0862 ± 0.02 | 0.1132 ± 0.001
10 | FARYLRSMYILF | 0.409 ± 0.029 | 0.546 ± 0.026 | 0.54989 ± 0.0003 | 0.5426 ± 0.0032 | 0.6721 ± 0.0049 | 0.369 ± 0.014 | 0.343 ± 0.019 | 0.462 ± 0.0051
11 | FAVLWFLYWCSW | 0.348 ± 0.063 | 0.347 ± 0.0065 | 0.376 ± 0.019 | 0.282 ± 0.026 | 0.422 ± 0.013 | 0.245 ± 0.025 | 0.261 ± 0.044 | 0.387 ± 0.0054
12 | FCCSFFLCVCFV | 0.392 ± 0.0044 | 0.349 ± 0.036 | 0.371 ± 0.0043 | 0.309 ± 0.019 | 0.409 ± 0.007 | 0.29 ± 0.017 | 0.276 ± 0.034 | 0.348 ± 0.013
13 | FCLSPILLLRFL | 0.213 ± 0.034 | 0.268 ± 0.004 | 0.261 ± 0.012 | 0.355 ± 0.024 | 0.439 ± 0.0047 | 0.219 ± 0.022 | 0.174 ± 0.024 | 0.225 ± 0.012
14 | FCRPCCLIVFVV | 0.184 ± 0.037 | 0.236 ± 0.026 | 0.295 ± 0.029 | 0.253 ± 0.036 | 0.467 ± 0.0059 | 0.122 ± 0.0099 | 0.128 ± 0.019 | 0.126 ± 0.019
15 | FFCRARHRLYVA | 0.233 ± 0.023 | 0.537 ± 0.044 | 0.626 ± 0.059 | 0.626 ± 0.012 | 0.675 ± 0.0094 | 0.0986 ± 0.0092 | 0.105 ± 0.0095 | 0.152 ± 0.061
